Source: the RNAGym collection of RNA variant scans (doi:10.1073/pnas.2313332121)

B1: TPR t1 (parent)
chain: GACCAAUCUGCCCUCAGAGCUCGAGAACAUCUUCGGAUGCAGAGGAGGCAGGCUUCGGUGGCGCGAUAGCGCCAACGUCCUCAACCUCCAAUGCAUCCCACCACAUGAUGAUGCCUGAAGAGCCUUGGUUUUUUG

Variants of: B1
Assay: polymerase ribozyme fitness, log enrichment relative to wild type (log ratio); higher = more active; in vitro selection for triplet polymerase activity
Summary of the method: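 PCR was used to build mutant libraries for each subunit of a heterodimeric triplet polymerase ribozyme, which were then transcribed. A single in vitro selection round, in triplicate, used a frozen incubation at −7 °C and recovered extended constructs by gel excision, streptavidin beads and RT-PCR. Fitness is the logarithm of genotype enrichment relative to wild-type enrichment, averaged over replicates with inverse-variance weights. The logarithm is base 2, and after Illumina sequencing only genotypes with ≥10 input reads and ≥1 read per output were kept.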

Variant | polymerase ribozyme fitness (log ratio)
A37C G48C C53U U54A G60C C88A G93A C115U A121G | -6.81
G39C G69C | -2.22
U38A C101U G117C | -4.18
U38A A111U | -4.52
G39U G127C | -1.28
A37U G60C C62U | -2.01
A37U G61U A83G C88A | -2.28
G39U C53G U116C | -2.62
G39U A95U | -1.27
A37U A75U G120C | 1.14
G36U C80A | -3.93
G36U C115U | -2.01
G39U G52C C53A A83U | -3.01
A37U A50U G52A | -2.94
A37G G44C | -0.927
G39A A50G C79A | -2.95
A37U G52A G61A A105G G127C | -4.21
G39A G51U A83G A95C C124A | -2.8
A37G A121C | 2.11
G39U G93A C123A | -1.36
A37U A50G | -0.867
A37U G69A | -3.01
G39U A84C G122A C123A C124A | 0.979
A37G G60A C102U | -3.61

Variant | polymerase ribozyme fitness (log ratio)
G39A G61C C72U G117A | -1.82
G39U A41U C104U C123A | -2.95
G39A G71U A84U | -0.797
G39A C56U C85U A111U | -3.84
G36U G47C G117U | -6.43
G39U G52A G63U | -2.37
G39U C40G U106A U109A G120C | -5.48
G39A G52A C72U C85U A95C G113U | -5.94
G39A G57U C80A A121C | 0.47
A37U G58C A75U C80U G93A C97A | -6.83
G39A C64U | 0.0887
G36U U78G A105C | -3.65
A37C C56G C101A G110U G127U | -4.67
G39U C62U C115G | -1.99
G36U C70G C89U | -5.64
A37C C123G | 0.773
U38C U54A G77A U96A G120A | -4.19
A37U A105C | -3.01
U38C A43U | -2.21
G39A G110A | -1.31
A37G C73A C82A A83G | -2.53
A37U G77C | -1.31
U38C C64A | -6.78
A37U C64U C88U C102A | -2.71

Variant | polymerase ribozyme fitness (log ratio)
U38C G45A U54A A83C G120U | -0.856
C40A A43U | -2.77
U38G U87A A95C | -1.01
G36U G51C G69U C115U | -3.32
G39U C40A A43G C56G C104U U130C | -4.61
G39U G47C G57U A84C | -3.89
G39A G42U C72A | -1.57
C40A A90G C123U | 0.623
U38A C89G C114A C123A U131G | -4.1
G39A A84U | -1.22
A37U U106C | -0.686
G39A G44A U78C | -1.89
A37G C56U C102A | -1.87
C40A C56A C73U A84C | -2.23
A37C G39U C56U | -2.66
G39A C49U G57A A84U C97U G120C C124U G128U U132A | -2.74
G36U U112G | -1.32
G39C C89U C115G C123A | -4.39
G39U A41U A95C G117U | -4.57
A37C G44A C53U C104U | -1.64
G36U C86G | -2.22
A37C | -0.431
A37G | -0.185
A37U | -0.355

Variant | polymerase ribozyme fitness (log ratio)
C40A C72A A100C U132C | -2.7
U38G A91C | -2.88
G39U C86A U106A | -2.01
G39U A111C C124A | 0.34
A37U G61U G120C | 0.718
U38A U96G U112A G128A | -2.89
A37C U55C | -1.17
A37G G69U | -1.08
A37U A41U C88U | -2.75
A37U G48A G61C U116A | -4.18
G39U C70A | -2.96
A37C G44A A46C G47U U59C | -6.19
G39A C72G | -0.976
G36U C40U A43C A46U G48C | -5.24
A37G G44C C72G U78C | -1.05
A37G C73G U109A | -7.2
G39U C114U G120A G127C | -2.98
G39U A84U | -1.03
A37U G69A G77A A90U C123U | -5.05
U38A G120A | -0.255
U38A A75U C82U A83C C88G U112C G122A | -2.99
U38C C40U A46U U55A C73U | -3.3
G39C G127C | -1.46
G39U C56G C72G U112C C124U | -1.3

Variant | polymerase ribozyme fitness (log ratio)
A37U U96G | -0.312
G36U G117U | -3.26
G39C G120U | -1.35
G39U G60A U78C G127U | -2.06
U38A G63U U131A | -2.72
G39A G61U | -0.116
G39C G42U G47C | -3.36
G39A G51A C64U U78C | -3.91
G39C C49G G77U C94A C98G C102U C123A U131A | -5.44
U38A C73G C101A A119U A121U G122U | -2.99
A37U A50U C94U | -1.81
A37U C88U C101G C115G | -3.98
G39C G63C | -1.54
G39U C98U | -1.66
G39C U54A | -0.125
A37G C72G C73U A74U | -6.02
A37G C89A C102A C124U | -3.6
U38G G69A U112A | -4.05
U38C G71C C82A A83U A90G | -2.39
A37C G44A C53A G63C C124A | -3.21
A37U G48A G61C A105U A111U | -6.69
G39U C62A C86A | -5.05
U38G G44A G63C U96C | -2.8
G39U G60C | -0.892

Variant | polymerase ribozyme fitness (log ratio)
G39C G61C A83G | -3.89
G39A C70G | -3.16
U38G C49A C73U C86U U109G U126A | -5.53
G39A U55A G77C A84C | -2.23
G39A C49A G122A C123G | 0.869
A37C U38G | -1.27
U38C G44U A111G U133G | -1.11
G39A C64U C124A | 1.06
A37U G69C U112A G128U | -4.19
C40A A50U A95C | -3.28
A37U C49U C64U C114U | -3.02
A37U G52A C56A G110C A118U | -5.47
A37U G52U G69C | -2.07
U38G G61U | -0.532
G39C A41U G60A | -2.76
A37G C49A | -0.708
G36U G47U | -2.97
G39U A105C | -3.64
A37U U55G | -0.465
G39U C80U C101A A111U | -5.03
G39A G60C G113C C115A | -4.37
C40A C70U C124U | -0.171
G36U G57A | -2.09
U38G U54G | -0.407

Variant | polymerase ribozyme fitness (log ratio)
U38G U54A | -0.658
A37U A46U | -2.98
G39U U87C | -0.0295
G36U G61A | -1.47
A37G G42A C79G C104U | -4.86
G39C G52A | -1.32
U38G C88U | -0.426
A37U U112A | 0.71
G39C U54A G58U C114A | -2.27
G36U C40A | -3.53
A37G G60U C80A | -5.24
G39A C72G G113A | -2.17
G39A C49U U78C | -1.72
A37U C72U U96A | -0.172
C40A A43C G120C U130A | -2.63
A37G A83C C88G U130G | -4.95
G36U U116A | -4.2
U38C G71A | -1.37
G39U U92C C115U A119U | -3.57
G39A G44A C62G U78C | -6.69
A37C C64U C115G | -1.35
G39A G69U U96A C104A G113A U126C | -3.63
A37G G69U C99A C114A | -3.09
